Assay results published in a protein production outcome set (Wang et al. 2014).

Experiment: label from the status in PepcDB records
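Note: failed if final PepcDB status was selected cloned or expressed and not failed if soluble or beyond.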

Sequence	protein production
MRPEHIPNIISTLRIFLVYPVVHLMLAERYTAALALFVVAGVSDAIDGFLAKHYGWQSRLGSYLDPLADKLLLVCCFVAGAWLGLLPVWMAAAVLLRDAVIVTGAIAYYLLLHPFDGQPILASKLNTLLQLAFIVAILFNRGVSELPPFLLDGLLAATLATTIASGAIYVYVWGRNYRLETAQGRR	failed
MRKSKLTFIATFLILLFLSMPYKAHAASQTPITRADAEQRALTMINLNWTYSKSKNGVLPSAYSGSITAPSQFRGIENVVATGIPYCWGGFDGLNSSSYGESWTNFTDAVNKGAFVGNVKSSSYGHITGTAGLDCSGFVQATFNIKDYKLSTSTIFNQYFTKIDIKDIKHMDILNLPGNHVVIFDKWGTRNGVNGAYTYEATPDTTYGGIQGTKQYFMSMNTVSQYIPGRYVNIKEVAYVQVINASSLNIRTGPSTSYPIIGTISQNQIAEVTGYSSDGTWYKIKINGIEGYASSTYLTYVNNLEHHHHHH	failed
MYLAASADTKPLPDSDDEEDQHTNAVSIPIAVHNMASALLQVEQAIGKRFLKEPYGMKKWDPKQEALKLACDSRLHQWEVSLMESTSFAQVFLHLNILHDCIQWRRSTNKSLCKVCRRGSDPEKMLLCDECNAGTHMFCLKPKLRSVPPGNWYCNDCVKSLGLSNG	failed
MLKTPYYLIDKRALLQNLEVIRRIRERSGAKVLLALKCFATWSVFDLMREYMDGTTSSSLFEVRLGREKFGGETHAYSVAYAEDDIDDVVACADKIIFNSLSQLERYAPRASAIPRGLRLNPGISVSGYDLANPARPFSRLGETDLDRIAQAMPMIDGFMVHNNCENRDFTRFDALLTELEHRYGHLLGQINWISLGGGIHFTEPGYALDAFCDRLRRFSEQYGVQVYLEPGEAAITNTATLEVTVLDVMRNEKNLAIVDAATEAHMLDLLIYRMSARVQPDQGPHRYVIYGNSCLAGDVFGEFSFESPLQPGSRISIQDAAGYTMVKKNWFNGVRMPAIAIRELDGEIRLVREFGYQDYVDSLS	failed
MKSARPRLSDAHGRRNCARRGRRPGHQPFWRLAMNIVRYPQFSTHALQNEIKHVFDRFFEHNSDTDESAVVTAQWVPRVDIKEEPKHFVLYADLPGIDPSQIEVQMDKGILSIKGERKSESSTETERFSRIERRYGSFHRRFALPDSADADGITASGHNGVLEIRIPKRPAATPRRIHVGNGQDTSDSTVQ	failed
MFTYLLITIFGIGLLIWAFWYDKNMFKPEKKKNGKMTKPLHTRWYFWVLVVFSIVGGIGNMLGLGADDDDSDNNSAQTVQTSKKAKQSKAENHSKAKKSGTKKSKEISDEEKEAAALLLLRKNFKGKAKVWYDSDNKAFMIQPTGTEFKEELLDIIATQDTSDWKDLTDSMDSLSRSLYKNLQLADFVSIVNPDNPDKVLYSSLNGHSEYDFLKDDE	failed
MNLQHITILTLFIEGLLSFFSPCVLPILPVYIGILAGQGEEKQSGEIIWDRRKVFTNTFLFISGIAATFFILAFASSLISQFLQSHIQFLQNLGGILILIMGLVQVGLIKSHFFNREYSAKNKVYQAGQKVTPLIAFLMGFTFSFSWTPCIGPILASVFLYASTHQGIYSVLLILIYCLGFVIPFALIALFSQRVMSVFKKQKRFLKYTKLFSGILLILIGISILTGSFAKIAHLFN	failed
MEELLDILREFRDSRGWLKYHTPKNLAVSISIEVAELLEIFQWTRSSDEEFEVLERRKGEVEEEIADVLIYLLFLCDVAEINPIEAVKRKMEKNERKYPKNRVHEF	not failed
LDQILRATVEEVRAFLGTDRVKVYRFDPEGHGTVVAEARGGERLPSLLGLTFPAGDIPEEARRLFRLAQVRVIVDVEAQSRSISQPESWGLSARVPLGEPLQRPVDPCHVHYLKSMGVASSLVVPLMHHQELWGLLVSHHAEPRPYSQEELQVVQLLADQVSIAIAQAELSL	not failed
MRTAVIIPFYQREAGILSRALDSVDGQILPEGHSLTVFVIDDESPVSARSEVEGRQGKVPVRLIAQKNGGPGAARNAGLDAVAAEGFDHVAFLDSDDIWQPTHLADALDLLARGYDFHFCDHQRTDDDITYFERTPALRRMREERHAGVTVLDAEAPILAFDQPSIMAASVDTYLSQTSTVVVRQSFVETLRFDPRLRNAGEDQLFWLSLIAAGARTVVSWKMNVLCGRGVNVYFDAFDWKSTKVVDRTGYMLMFFHTVGRRLSLTASDRRTVADRIRRYRRAYSYLFLRALLQGRVPTLSLTWKLAALDPGLVPAMPLRFLAVLPNREAESLQWLEHHHHHH	failed
